Here are results for four substances from patent US20040185507A1.

The target in experiment [1] is alpha V integrins (αvβ3 and αvβ5) on human cells (human) (UniProt P06756). The experiment can be described thus: cell-based or functional assay.
The target is the same in experiment [2]. The experiment can be described thus: 125-I antibody saturation binding on M21 cells (n = 4).
The target is the same in experiment [3]. As to the kind of experiment: 125-I antibody saturation binding on M21 cells (n = 8).
Experiment [4] shares this target. As to the kind of experiment: 125-I antibody saturation binding on A375S2 cells (n = 5).
Experiment [5] shares this target. As to the kind of experiment: 125-I antibody saturation binding on A375S2 cells (n = 7).
For experiment [6] the target is unchanged. The experiment can be described thus: 125-I antibody binding on A375S2 and M21 cells, rounded summary.
The target is the same in experiment [7]. As to the kind of experiment: flow cytometry on M21 cells; labeled CNTO95 2 µg/mL; no competitor (saline). Background: A flow cytometer gives signals particle by particle.
For experiment [8] the target is unchanged. The experiment can be described thus: flow cytometry on M21 cells; labeled CNTO95 20 µg/mL; no competitor (saline).
Experiment [9] has the same target. The experiment can be described thus: flow cytometry on M21 cells; labeled CNTO95 2 µg/mL; competitor m7E3 IgG 20 µg/mL. Set-up: % Positive: reference not given here.
Experiment [10] has the same target. The experiment can be described thus: flow cytometry on M21 cells; labeled CNTO95 20 µg/mL; competitor m7E3 IgG 20 µg/mL.
Experiment [11] shares this target. As to the kind of experiment: flow cytometry on M21 cells; labeled CNTO95 2 µg/mL; competitor anti-β3 (AMAC) 20 µg/mL.
The target is the same in experiment [12]. The experiment can be described thus: flow cytometry on M21 cells; labeled CNTO95 20 µg/mL; competitor anti-β3 (AMAC) 20 µg/mL.
The target is the same in experiment [13]. The experiment can be described thus: flow cytometry on M21 cells; labeled CNTO95 2 µg/mL; competitor P1F6 (anti-αvβ5) 20 µg/mL. On the set-up: % Positive: reference not given here.
The target is the same in experiment [14]. The experiment can be described thus: flow cytometry on M21 cells; labeled CNTO95 2 µg/mL; competitor VNR139 (anti-αv) 20 µg/mL.
Experiment [15] shares this target. As to the kind of experiment: flow cytometry on M21 cells; labeled CNTO95 2 µg/mL; competitor LM609 (anti-αvβ3) 20 µg/mL. Set-up: % Positive: reference not given here.
Experiment [16] shares this target. The experiment can be described thus: flow cytometry on M21 cells; labeled CNTO95 20 µg/mL; competitor P1F6 (anti-αvβ5) 20 µg/mL.
The target is the same in experiment [17]. As to the kind of experiment: flow cytometry on M21 cells; labeled CNTO95 20 µg/mL; competitor VNR139 (anti-αv) 20 µg/mL.
For experiment [18] the target is unchanged. The experiment can be described thus: flow cytometry on M21 cells; labeled CNTO95 2 µg/mL; competitor anti-β3 (Chemicon) 20 µg/mL.
Experiment [19] has the same target. As to the kind of experiment: flow cytometry on M21 cells; labeled CNTO95 20 µg/mL; competitor LM609 (anti-αvβ3) 20 µg/mL.
Experiment [20] has the same target. As to the kind of experiment: flow cytometry on M21 cells; labeled CNTO95 20 µg/mL; competitor anti-β3 (Chemicon) 20 µg/mL.
Experiment [21] has as its target αvβ3 integrin on human cells (human) (UniProt P06756). As to the kind of experiment: cell-based or functional assay.
Experiment [22] has the same target. The experiment can be described thus: radiolabeled antibody binding on A375S2 cells (n = 2).
For experiment [23], the target named is αvβ5 integrin on human cells (human) (UniProt P06756). The experiment can be described thus: cell-based or functional assay.
Chain of αvβ5 integrin on human cells (human) (P06756 31-1048, chain 1 of 2): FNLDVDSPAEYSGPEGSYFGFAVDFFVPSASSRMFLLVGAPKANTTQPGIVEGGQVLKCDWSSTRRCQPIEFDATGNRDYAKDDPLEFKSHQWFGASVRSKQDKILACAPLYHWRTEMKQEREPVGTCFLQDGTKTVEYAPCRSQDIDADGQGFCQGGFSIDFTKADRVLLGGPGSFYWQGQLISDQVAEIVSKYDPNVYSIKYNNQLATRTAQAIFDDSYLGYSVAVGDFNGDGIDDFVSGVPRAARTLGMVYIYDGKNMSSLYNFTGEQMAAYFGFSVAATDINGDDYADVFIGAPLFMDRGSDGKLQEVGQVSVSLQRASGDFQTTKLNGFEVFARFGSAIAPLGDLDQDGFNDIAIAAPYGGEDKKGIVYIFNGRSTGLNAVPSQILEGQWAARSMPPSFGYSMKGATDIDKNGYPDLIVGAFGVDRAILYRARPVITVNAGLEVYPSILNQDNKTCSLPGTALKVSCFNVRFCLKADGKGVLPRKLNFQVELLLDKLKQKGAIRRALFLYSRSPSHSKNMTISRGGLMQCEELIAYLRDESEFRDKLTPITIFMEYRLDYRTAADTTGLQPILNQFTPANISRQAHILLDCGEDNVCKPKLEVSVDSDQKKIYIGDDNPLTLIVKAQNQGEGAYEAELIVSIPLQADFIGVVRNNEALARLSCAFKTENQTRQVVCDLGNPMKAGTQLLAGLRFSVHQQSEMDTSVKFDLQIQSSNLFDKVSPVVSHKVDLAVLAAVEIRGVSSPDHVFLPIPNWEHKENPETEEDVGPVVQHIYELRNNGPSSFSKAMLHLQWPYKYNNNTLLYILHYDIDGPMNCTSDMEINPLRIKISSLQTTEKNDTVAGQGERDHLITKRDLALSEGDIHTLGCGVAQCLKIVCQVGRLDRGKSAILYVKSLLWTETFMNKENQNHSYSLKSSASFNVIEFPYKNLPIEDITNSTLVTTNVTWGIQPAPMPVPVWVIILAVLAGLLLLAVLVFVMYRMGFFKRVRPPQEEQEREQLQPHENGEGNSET
Chain of αvβ5 integrin on human cells (human) (P18084 24-799, chain 2 of 2, further chain): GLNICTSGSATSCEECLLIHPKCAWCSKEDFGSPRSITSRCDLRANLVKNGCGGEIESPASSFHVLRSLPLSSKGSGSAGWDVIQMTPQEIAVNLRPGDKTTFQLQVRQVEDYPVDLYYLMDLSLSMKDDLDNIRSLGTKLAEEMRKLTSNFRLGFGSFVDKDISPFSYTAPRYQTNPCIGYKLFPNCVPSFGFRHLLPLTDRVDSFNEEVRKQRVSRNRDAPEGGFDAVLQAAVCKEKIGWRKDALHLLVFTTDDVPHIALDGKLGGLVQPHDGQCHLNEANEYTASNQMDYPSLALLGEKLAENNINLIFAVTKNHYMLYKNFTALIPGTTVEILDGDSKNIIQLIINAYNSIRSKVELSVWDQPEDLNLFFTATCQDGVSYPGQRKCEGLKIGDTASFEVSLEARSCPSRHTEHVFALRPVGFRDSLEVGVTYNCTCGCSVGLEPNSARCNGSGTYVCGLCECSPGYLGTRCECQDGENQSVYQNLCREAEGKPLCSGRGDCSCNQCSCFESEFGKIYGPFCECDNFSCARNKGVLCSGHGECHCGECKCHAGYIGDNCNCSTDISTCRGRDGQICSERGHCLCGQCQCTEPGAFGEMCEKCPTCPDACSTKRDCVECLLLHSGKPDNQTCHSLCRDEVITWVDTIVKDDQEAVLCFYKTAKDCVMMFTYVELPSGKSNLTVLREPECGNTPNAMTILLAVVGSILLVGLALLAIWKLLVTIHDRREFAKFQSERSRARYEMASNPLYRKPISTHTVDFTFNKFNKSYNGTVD
For experiment [24] the target is unchanged. The experiment can be described thus: radiolabeled antibody binding on M21 cells (n = 2).
For experiment [25] the target is unchanged. The experiment can be described thus: radiolabeled antibody binding on HT-29 cells (n = 1).
The target is the same in experiment [26]. As to the kind of experiment: radiolabeled antibody binding on A375S2 cells (n = 4).

Chain of αvβ3 integrin on human cells (human) (P06756 31-1048, chain 1 of 2): as the sequence (P06756 31-1048, chain 1 of 2) above
Chain of αvβ3 integrin on human cells (human) (P05106 27-788, chain 2 of 2, further chain): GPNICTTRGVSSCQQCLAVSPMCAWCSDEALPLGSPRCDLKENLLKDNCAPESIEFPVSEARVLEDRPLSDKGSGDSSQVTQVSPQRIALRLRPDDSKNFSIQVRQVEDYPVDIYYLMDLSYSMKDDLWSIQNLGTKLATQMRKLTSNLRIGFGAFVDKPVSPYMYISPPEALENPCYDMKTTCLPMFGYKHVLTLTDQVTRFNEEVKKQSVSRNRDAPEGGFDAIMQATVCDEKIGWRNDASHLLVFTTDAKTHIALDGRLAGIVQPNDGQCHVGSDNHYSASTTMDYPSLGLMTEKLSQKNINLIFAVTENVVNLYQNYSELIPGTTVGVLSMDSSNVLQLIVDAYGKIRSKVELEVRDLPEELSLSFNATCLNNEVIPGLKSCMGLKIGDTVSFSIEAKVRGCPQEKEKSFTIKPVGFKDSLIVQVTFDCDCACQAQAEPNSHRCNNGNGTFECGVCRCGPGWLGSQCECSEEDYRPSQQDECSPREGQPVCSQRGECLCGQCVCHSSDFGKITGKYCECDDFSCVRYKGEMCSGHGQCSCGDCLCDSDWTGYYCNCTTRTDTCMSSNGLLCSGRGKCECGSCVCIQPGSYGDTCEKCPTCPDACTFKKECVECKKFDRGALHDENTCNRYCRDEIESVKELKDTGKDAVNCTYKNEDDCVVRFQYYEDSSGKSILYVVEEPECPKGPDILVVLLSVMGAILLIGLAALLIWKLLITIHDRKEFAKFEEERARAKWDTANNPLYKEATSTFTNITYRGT

In experiment [1], CNTO 95 (antibody) showed an A375S.2 cell adhesion to fibrin, % of no-antibody control (10 µg/ml) of 43.3%. Also, the A375S.2 cell adhesion to fibrinogen, % of no-antibody control (10 µg/ml) in [1] amounted to 11.4%. The same substance returned an A375S.2 cell adhesion to fibronectin, % of no-antibody control (10 µg/ml) in [1] of 103%. For the same substance, the A375S.2 cell adhesion to gelatin, % of no-antibody control (10 µg/ml) in [1] was 23.2%. Also, the A375S.2 cell adhesion to type I collagen, % of no-antibody control (10 µg/ml) in experiment [1] was determined as 104%. For the same substance, the A375S.2 cell adhesion to vitronectin, % of no-antibody control (10 µg/ml) in experiment [1] is 1.4%. In [1], this substance yielded an HUVEC adhesion to fibrin, % of no-antibody control (10 µg/ml) of 45.1%. This substance also came in with an HUVEC adhesion to fibrinogen, % of no-antibody control (10 µg/ml) in experiment [1] of 34.5%. Also, the HUVEC adhesion to fibronectin, % of no-antibody control (10 µg/ml) in experiment [1] is 102%. Moreover, the HUVEC adhesion to gelatin, % of no-antibody control (10 µg/ml) in [1] is 54.8%. Further, in experiment [1], the HUVEC adhesion to type I collagen, % of no-antibody control (10 µg/ml) stood at 97.7%. Also, the HUVEC adhesion to vitronectin, % of no-antibody control (10 µg/ml) in experiment [1] worked out at 3.3%. For the same substance, the values for the Kd in experiment [2], in experiment [4] and in [6] were 8.5 nM, 5.2 nM and 7 nM, respectively. Besides, the Receptors per cell (receptors/cell) in experiment [3] was 200000; in [5], 120000. For the same substance, the % Positive in [7] amounted to 100%; in [8] it was 100%; in experiment [9], 132%; in experiment [10] it was 103%; in [11], 106%; in experiment [12], 91%. Further, the % Positive was 112% in experiment [13]; 106% in [14]; 110% in experiment [15]; 101% in experiment [16]; 104% in experiment [17]; 125% in [18]. Besides, the figures for the % Positive in [19] and in experiment [20] were 93% and 91%, respectively. Further, the MCF (Median Channel Fluorescence) in experiment [7] was 4.33; in experiment [8], 14.3; in [9], 5.73; in experiment [10], 14.7; in [11] it was 4.61; in [12], 13.1. Moreover, the MCF (Median Channel Fluorescence) in [13] was determined as 4.87; in experiment [14], 4.61; in [15] it was 4.78; in [16], 14.5; in experiment [17], 14.9; in experiment [18], 5.42. The figures for the MCF (Median Channel Fluorescence) in [19] and in experiment [20] were 13.3 and 13.1, respectively.

With Human IgG (negative control) (antibody), in experiment [1], the A375S.2 cell adhesion to fibrin, % of no-antibody control (10 µg/ml) came out at 99.5%; the A375S.2 cell adhesion to fibrinogen, % of no-antibody control (10 µg/ml) came to 102%; the A375S.2 cell adhesion to fibronectin, % of no-antibody control (10 µg/ml) is 100%; the A375S.2 cell adhesion to gelatin, % of no-antibody control (10 µg/ml) was 94.6%. In [1], this substance displayed an A375S.2 cell adhesion to type I collagen, % of no-antibody control (10 µg/ml) of 99.1%; an A375S.2 cell adhesion to vitronectin, % of no-antibody control (10 µg/ml) of 104%; an HUVEC adhesion to fibrin, % of no-antibody control (10 µg/ml) of 99.7%; an HUVEC adhesion to fibrinogen, % of no-antibody control (10 µg/ml) of 108%. In [1], this substance showed an HUVEC adhesion to fibronectin, % of no-antibody control (10 µg/ml) of 96.8%; an HUVEC adhesion to gelatin, % of no-antibody control (10 µg/ml) of 109%; an HUVEC adhesion to type I collagen, % of no-antibody control (10 µg/ml) of 99.3%; an HUVEC adhesion to vitronectin, % of no-antibody control (10 µg/ml) of 96.3%.

With “LM609 (murine anti-human αvβ3 antibody, Chemicon)”, in experiment [21], the A375S.2 cell adhesion to fibrin, % of no-antibody control (10 µg/ml) is 50%; the A375S.2 cell adhesion to fibrinogen, % of no-antibody control (10 µg/ml) stood at 14%; the A375S.2 cell adhesion to fibronectin, % of no-antibody control (10 µg/ml) came out at 104%; the A375S.2 cell adhesion to gelatin, % of no-antibody control (10 µg/ml) came out at 25.2%. For the same substance, in experiment [21], the A375S.2 cell adhesion to type I collagen, % of no-antibody control (10 µg/ml) amounted to 100%; the A375S.2 cell adhesion to vitronectin, % of no-antibody control (10 µg/ml) was 42.1%; the HUVEC adhesion to fibrin, % of no-antibody control (10 µg/ml) was 48.1%; the HUVEC adhesion to fibrinogen, % of no-antibody control (10 µg/ml) amounted to 14.3%. In experiment [21], the HUVEC adhesion to fibronectin, % of no-antibody control (10 µg/ml) is 103%; the HUVEC adhesion to gelatin, % of no-antibody control (10 µg/ml) was 36.5%; the HUVEC adhesion to type I collagen, % of no-antibody control (10 µg/ml) was determined as 109%; the HUVEC adhesion to vitronectin, % of no-antibody control (10 µg/ml) came out at 26.3%. Further, the Receptors per cell (receptors/cell) in experiment [22] is 300000.

In experiment [23], P1F6 (murine anti-human αvβ5 antibody) came in with an A375S.2 cell adhesion to fibrin, % of no-antibody control (10 µg/ml) of 92.9%; an A375S.2 cell adhesion to fibrinogen, % of no-antibody control (10 µg/ml) of 99.4%; an A375S.2 cell adhesion to fibronectin, % of no-antibody control (10 µg/ml) of 101%; an A375S.2 cell adhesion to gelatin, % of no-antibody control (10 µg/ml) of 87.4%. In [23], this substance displayed an A375S.2 cell adhesion to type I collagen, % of no-antibody control (10 µg/ml) of 101%; an A375S.2 cell adhesion to vitronectin, % of no-antibody control (10 µg/ml) of 28.5%; an HUVEC adhesion to fibrin, % of no-antibody control (10 µg/ml) of 96.7%; an HUVEC adhesion to fibrinogen, % of no-antibody control (10 µg/ml) of 94.5%. In [23], the HUVEC adhesion to fibronectin, % of no-antibody control (10 µg/ml) came to 103%; the HUVEC adhesion to gelatin, % of no-antibody control (10 µg/ml) is 94.4%; the HUVEC adhesion to type I collagen, % of no-antibody control (10 µg/ml) turned out to be 116%; the HUVEC adhesion to vitronectin, % of no-antibody control (10 µg/ml) amounted to 39.8%. In experiment [24], this substance gave a Receptors per cell (receptors/cell) of 44000. Moreover, the Receptors per cell (receptors/cell) in experiment [25] is 73000. In experiment [26], this substance displayed a Receptors per cell (receptors/cell) of 70000.

As usually defined, the Kd is the concentration at which binding is half-saturated.
